Test results taken from patent US20200247855A1, “THERAPY AND DIAGNOSTICS” (OXFORD UNIVERSITY INNOVATION LIMITED, priority 2017, published 2020).
Positions count from the first letter of the chain named. Entries after “also recorded” stand apart in the source; their conditions may differ.

Tests used:
[1] = target: CXCL12_HUMAN (Homo sapiens, UniProt P48061); assay: Yeast surface display (YSD) FACS binding
Experimental: (§1) Table 1. Tick CKBPs described in PCT/GB2017/050563 and [17]. Tick peptide sequences isolated in yeast surface display fluorescent-activated cell sorting (FACS) screens using a labelled chemokine. Identity with Evasin-1, 4 or 3 was calculated using BLAST. Abbreviations: IXORI—Ixodes ricinus, RHISA—Rhipicephalus sanguineus, AMBMA—Amblyomma maculatum, AMBPA—Amblyomma parvum, AMBTR—Amblyomma triste, AMBAM—Amblyomma americanum, AMBCA—Amblyomma cajennense, RHIPU—Rhipicephalus pulchellus. Table 2A-C. Binding characteristics of tick CKBPs previously disclosed (PCT/GB2017/050563 and [17]). All members of the human chemokine family[164] are listed in column 1. Binding to human chemokines was determined for 14 tick CKBPs using biolayer interferometry (BLI) with calculated Kd shown as Molar (Moles/Litre). Binding data for 17 other novel tick CKBPs was assayed using yeast surface display[17,166],with positive binding results shown as “YES”. For biolayer interferometry, His-tagged purified tick CKBP was bound to a Ni-NINTA sensor on an OctetRed® 384 system, and then binding to each chemokine listed (with the exception of CCL25, CCL26, CXCL16, CXCL17, CXCL4L1, XCL2) was assayed in a cross-binding screen at a chemokine concentration of 300 nM as described. For those chemokines showing binding to a tick CKBP in the cross-binding screen, binding assays were repeated using different doses of chemokine. Association, equilibrium and dissociation data were analysed using Octet software to create corresponding fitted curves, and used to calculate Kd. For yeast surface display, (YSD) background fluorescence was controlled for by using either an empty vector or by omitting the chemokine (i.e. using streptavidin-Alexa647 alone). An arbitrary threshold of >3 fold over background mean fluorescence intensity was chosen to describe confirmed re-tests. Where binding was detected data are indicated as “YES”. […] For yeast surface display data, empty cells represent chemokines that were not tested. Binding data published in relation to previously described tick CKBPs (Evasins-1, 4 and 3) is also shown for comparison in each of FIGS. 2A-C, with the relevant data obtained from publications: [20-22,32]. Table 3: Neutralisation of human chemokines by tick CKBPs previously disclosed (PCT/GB2017/050563 and [17]). Neutralising activity was determined using a quantitative THP1 cell migration assay in a 96-well Boyden chamber with chemokine in the bottom chamber as described. Cells migrating through to the bottom chamber at 4 hours were counted using flow cytometry in a 96 well plate format. IC50 for neutralisation was determined at the chemokine EC80 dose as determined using a range of tick CKBP concentrations. Data was analysed using GraphPad Prism to determine IC50, which is shown as Molar (Moles/Litre). Empty cells represent experiments not done. Table 4—Other previously described tick CKBPs. Tick CKBPs that were also described in PCT/GB2017/050563 and Singh et al. are indicated in “Notes”. Table 5.—Novel tick CKBPs of the invention. Table 6. […] The peptide sequence prefix indicates the identity, and suffix indicate the tick species as follows: AMBCA, Amblyomma cajennense and IXORI, Ixodes ricinus. […] Certain tick peptides e.g. P1074_IXORI were recovered from screens performed with more than one chemokine. Individual yeast clones recovered from the library were re-tested using a FACS (fluorescence activated cell sorting), experiment. The binding of the peptide to the chemokine was assayed by measuring the percent (%), of yeast cells expressing the given peptide that exceeded a background threshold set by measuring the fluorescence of the yeast library pool treated with streptavidin-[…] alone. When more than one independent yeast clone was isolated for a given peptide-chemokine combination, the mean percent shift was calculated and reported in column 3. […]

[2] = target: CCL20_HUMAN (Homo sapiens, UniProt P78556); assay: Yeast surface display (YSD) FACS binding
Experimental: as §1

[3] = target: T1, CXCL8_HUMAN (Homo sapiens, UniProt P10145); assay: Yeast surface display (YSD) FACS binding; set-up: label (chemical); settings: yeast surface display
T1 sequence (P10145 21-99): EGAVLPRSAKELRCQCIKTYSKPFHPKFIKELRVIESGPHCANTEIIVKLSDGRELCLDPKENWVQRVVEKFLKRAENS
Experimental: as §1

[4] = target: T2, CCL5_HUMAN (Homo sapiens, UniProt P13501); assay: Yeast surface display (YSD) FACS binding
T2 sequence (P13501 24-91): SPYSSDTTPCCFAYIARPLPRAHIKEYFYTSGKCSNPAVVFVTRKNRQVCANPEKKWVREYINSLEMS
Experimental: as §1

[5] = target: T3, CCL17_HUMAN (Homo sapiens, UniProt Q92583); assay: Yeast surface display (YSD) FACS binding
T3 sequence (Q92583 24-94): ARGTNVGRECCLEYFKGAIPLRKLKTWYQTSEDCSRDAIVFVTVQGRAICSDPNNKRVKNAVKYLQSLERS
Experimental: as §1

[6] = target: T4, CXCL9_HUMAN (Homo sapiens, UniProt Q07325); assay: Yeast surface display (YSD) FACS binding; settings: FACS re-test; mean percent shift where several clones
T4 sequence (Q07325 23-125): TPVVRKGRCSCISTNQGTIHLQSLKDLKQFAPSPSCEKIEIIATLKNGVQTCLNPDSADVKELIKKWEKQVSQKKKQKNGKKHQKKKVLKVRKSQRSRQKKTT
Experimental: as §1

[7] = target: T5, CCL8_HUMAN (Homo sapiens, UniProt P80075); assay: Biolayer interferometry (BLI) binding; settings: read-out: Kd, CCL8_HUMAN
T5 sequence (P80075 24-99): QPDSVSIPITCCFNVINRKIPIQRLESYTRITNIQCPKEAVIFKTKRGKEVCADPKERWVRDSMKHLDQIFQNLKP
Experimental: as §1

[8] = target: CCL7_HUMAN (Homo sapiens, UniProt P80098); assay: Biolayer interferometry (BLI) binding
Experimental: as §1

[9] = target: CCL11_HUMAN (Homo sapiens, UniProt P51671); assay: Biolayer interferometry (BLI) binding
Experimental: as §1

[10] = target: T6, CCL4_HUMAN (Homo sapiens, UniProt P13236); assay: Biolayer interferometry (BLI) binding
T6 sequence (P13236 24-92): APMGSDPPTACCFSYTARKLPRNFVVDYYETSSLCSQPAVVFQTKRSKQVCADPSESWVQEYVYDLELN
Experimental: as §1

[11] = target: CCL13_HUMAN (Homo sapiens, UniProt Q99616); assay: Biolayer interferometry (BLI) binding
Experimental: as §1

[12] = target: T7, CCL4L1_HUMAN (Homo sapiens, UniProt Q8NHW4); assay: Biolayer interferometry (BLI) binding
T7 sequence (Q8NHW4 24-92): T6 sequence (P13236 24-92) with S47G
Experimental: as §1

[13] = target: T8, CCL18_HUMAN (Homo sapiens, UniProt P55774); assay: Biolayer interferometry (BLI) binding
T8 sequence (P55774 21-89): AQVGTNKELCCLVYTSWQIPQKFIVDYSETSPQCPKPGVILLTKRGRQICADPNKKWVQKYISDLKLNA
Experimental: as §1

[14] = target: T9, CCL14_HUMAN (Homo sapiens, UniProt Q16627); assay: Biolayer interferometry (BLI) binding
T9 sequence (Q16627 20-93): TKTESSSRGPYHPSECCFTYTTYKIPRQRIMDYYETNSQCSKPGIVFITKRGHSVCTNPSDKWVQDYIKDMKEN
Experimental: as §1

[15] = target: CCL2_HUMAN (Homo sapiens, UniProt P13500); assay: Biolayer interferometry (BLI) binding
Experimental: as §1

[16] = target: T10, CCL1_HUMAN (Homo sapiens, UniProt P22362); assay: Biolayer interferometry (BLI) binding
T10 sequence (P22362 24-96): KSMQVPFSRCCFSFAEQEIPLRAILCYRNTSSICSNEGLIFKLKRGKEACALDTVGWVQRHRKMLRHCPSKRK
Experimental: as §1

[17] = target: T11, CCL16_HUMAN (Homo sapiens, UniProt O15467); assay: Biolayer interferometry (BLI) binding
T11 sequence (O15467 24-120): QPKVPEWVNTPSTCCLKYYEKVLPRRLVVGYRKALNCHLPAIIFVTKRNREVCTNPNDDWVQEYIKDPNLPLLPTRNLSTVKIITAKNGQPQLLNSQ
Experimental: as §1

[18] = target: CCL3L1_HUMAN (Homo sapiens, UniProt P16619); assay: Biolayer interferometry (BLI) binding
Experimental: as §1

[19] = target: T12, CCL3_HUMAN (Homo sapiens, UniProt P10147); assay: Biolayer interferometry (BLI) binding
T12 sequence (P10147 24-92): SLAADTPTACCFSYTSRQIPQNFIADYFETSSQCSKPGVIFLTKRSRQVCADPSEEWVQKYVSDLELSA
Experimental: as §1

[20] = test system: chemokines; settings: list of chemokines bound, from the literature [18,20-22]; cited from earlier work

CCL20_HUMAN, sequence (P78556 27-96): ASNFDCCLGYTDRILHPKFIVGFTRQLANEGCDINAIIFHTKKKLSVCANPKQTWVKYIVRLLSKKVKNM
CXCL12_HUMAN, sequence (P48061 22-93): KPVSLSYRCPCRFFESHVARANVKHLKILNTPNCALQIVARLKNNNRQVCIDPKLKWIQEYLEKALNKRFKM
CCL3L1_HUMAN, sequence (P16619 24-93): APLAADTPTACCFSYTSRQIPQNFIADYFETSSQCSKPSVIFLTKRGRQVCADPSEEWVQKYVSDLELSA
CCL11_HUMAN, sequence (P51671 24-97): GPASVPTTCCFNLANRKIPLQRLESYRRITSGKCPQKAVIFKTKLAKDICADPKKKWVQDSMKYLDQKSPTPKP
CCL2_HUMAN, sequence (P13500 24-99): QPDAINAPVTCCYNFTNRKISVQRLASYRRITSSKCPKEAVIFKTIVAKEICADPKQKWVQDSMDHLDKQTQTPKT
CCL7_HUMAN, sequence (P80098 24-99): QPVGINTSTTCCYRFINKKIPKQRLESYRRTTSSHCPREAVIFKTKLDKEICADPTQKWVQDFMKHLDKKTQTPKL
CCL13_HUMAN, sequence (Q99616 17-98): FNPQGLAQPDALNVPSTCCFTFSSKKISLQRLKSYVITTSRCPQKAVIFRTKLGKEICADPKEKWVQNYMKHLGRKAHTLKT

B1: P1015_AMBCA: tick CKBP, Amblyomma cajennense (protein)
chain: EEAPGPAPGCGEPEPTPPKPRRHGIVTNVNSCNSTILVWNGKEFPALCKVRCPHKSYRVSDFEPCLKFTNRRFLQERKDETPYKCKLGFCRHGTCITSEHSRKVPCKVPADRLDPSE
modifications: Amblyomma cajennense
Binding to CXCL12_HUMAN, YSD ([1]; yeast surface display): YES (An arbitrary threshold of >3 fold over background mean fluorescence intensity was chosen to describe confirmed re-tests. Where binding was detected data are indicated as “YES”)
Binding to CCL20_HUMAN, YSD [2]: YES (An arbitrary threshold of >3 fold over background mean fluorescence intensity was chosen to describe confirmed re-tests. Where binding was detected data are indicated as “YES”)

B2: P993_AMBPA: tick CKBP, Amblyomma parvum (protein, listed as Amblyomma parvum)
chain: HRHYDPNEPCLIAGLKTPRDALPAGCRYDCMIKKNQKLRDGLLCLDVPEKVVKRMVNYLNYSCPLGTCRKGICKRKHRNVRCQKYPVFYMSPPK
Binding to CXCL8_HUMAN, YSD [3]: YES (An arbitrary threshold of >3 fold over background mean fluorescence intensity was chosen to describe confirmed re-tests. Where binding was detected data are indicated as “YES”)
Binding to CCL5_HUMAN, YSD [4]: YES (An arbitrary threshold of >3 fold over background mean fluorescence intensity was chosen to describe confirmed re-tests. Where binding was detected data are indicated as “YES”)
Binding to CCL17_HUMAN, YSD [5]: YES (An arbitrary threshold of >3 fold over background mean fluorescence intensity was chosen to describe confirmed re-tests. Where binding was detected data are indicated as “YES”)
Binding to CCL20_HUMAN, YSD [2]: YES (An arbitrary threshold of >3 fold over background mean fluorescence intensity was chosen to describe confirmed re-tests. Where binding was detected data are indicated as “YES”)

B3: P1252_AMBAM: tick CKBP, Amblyomma americanum (protein, listed as Amblyomma americanum)
chain: RGGAASVPANASIPGCGDAQTTPAAPEDQPKHYVVYRDGNGCEVKIIGTWMTTEDYNCLPDTFRKNRAPHGKVKLPASCKKTCGNAVQNLKDGTPCRKVFGDLGRRRNLIKNGCLVGACQSGLCVSGNRTISCYIPPNSTDTRATPGSFAE
Binding to CCL17_HUMAN, YSD [5]: YES (An arbitrary threshold of >3 fold over background mean fluorescence intensity was chosen to describe confirmed re-tests. Where binding was detected data are indicated as “YES”)
Binding to CCL20_HUMAN, YSD [2]: YES (An arbitrary threshold of >3 fold over background mean fluorescence intensity was chosen to describe confirmed re-tests. Where binding was detected data are indicated as “YES”)

B4: P1080_IXORI: novel CXC-binding tick CKBP, Ixodes ricinus (protein, listed as Ixodes ricinus)
chain: SAGSKGSSAPQSSGDSVVAEFCDTNCTMKKDGKWTECNGDCFCVHVGNETVGRCMRLDGDYDYTSSKTTRRNKKTRNGLCRLDRNRTTVDYPERNTREP
Chemokines bound in yeast surface display and % cells over threshold fluorescence: CXCL9_HUMAN [6]: CXCL9_HUMAN 49%
Chemokines bound in yeast surface display and % cells over threshold fluorescence: CXCL12_HUMAN ([1]; FACS re-test, mean percent shift where several clones): CXCL12_HUMAN 53%;

B5: P1074_IXORI: novel CXC-binding tick CKBP, Ixodes ricinus (protein, listed as Ixodes ricinus)
chain: GSKESSAHQSSDDSIKAEFCDAKCTMKTDGKWTQCHGGCFCVHVGNETEGRCMRLDGDYDYPSTQPEE
Chemokines bound in yeast surface display and % cells over threshold fluorescence: CXCL9_HUMAN [6]: CXCL9_HUMAN 35%

B6: P467_RHIPU: tick CKBP (evasin), Rhipicephalus pulchellus; RPU-01 stated identical (protein, listed as Rhipicephalus pulchellus)
chain: AEKSLDSDSSGEDYELWTQGCPFLVAENRTGFGTTVSCQHNCNGAIEKVPEGEPCYTIGEDGLGRMKLNLPYNCSLGECSGGVCVPNGRSDVCFKRTWEENNKAMA
Kd [7]: 2.85 nM
Kd [8]: 2.15 nM
Kd [9]: 1.4 nM
Kd [10]: 13.6 nM
Kd [11]: 2.56 nM
Kd [12]: 4.72 nM
Kd [13]: 16.6 nM
Kd [14]: 4.13 nM
Kd [15]: 0.001 nM
Kd [16]: 53.4 nM
Kd [17]: 14.1 nM
Kd [18]: 0.524 nM
Kd [19]: 0.363 nM
Previously described chemokine binding [20]: CCL11, CCL24,; also recorded: CCL26, CCL2,; also recorded: CCL8, CCL7
